Reference: patent US20210032299A1 (Eli Lilly, published 2021)
Starred links: 1 amine or outer side, 2 acyl side, 3 side chain; linkers in the order of their positions; H or OH if unused. Non-standard residues stand in square brackets, D forms with d. Groups on a side chain read outwards from the residue. No end group written: not given here. *: point of attachment. C20 diacid = O=C(O)CCCCCCCCCCCCCCCCCCC(=O)*; γGlu = O=C(O)[C@H](CCC(=O)[*:2])N[*:1]; 4Pal = N[C@@H](Cc1ccncc1)C(=O)O; αMeL = CC(C)C[C@](C)(N)C(=O)O; AEEA = NCCOCCOCC(=O)O; Aib = CC(C)(N)C(=O)O

B1: Example 78 (peptide)
peptide: Y[Aib]EGTFISDYSI[αMeL]LDKK([AEEA-AEEA-γGlu-C20 diacid])HQ[Aib]DFVE[4Pal]LLAAGPSSGAPPPS-NH2
modifications: N-terminus assumed
SMILES: CC[C@H](C)[C@H](NC(=O)[C@H](Cc1ccccc1)NC(=O)[C@@H](NC(=O)CNC(=O)[C@H](CCC(=O)O)NC(=O)C(C)(C)NC(=O)[C@@H](N)Cc1ccc(O)cc1)[C@@H](C)O)C(=O)N[C@@H](CO)C(=O)N[C@@H](CC(=O)O)C(=O)N[C@@H](Cc1ccc(O)cc1)C(=O)N[C@@H](CO)C(=O)N[C@H](C(=O)N[C@@](C)(CC(C)C)C(=O)N[C@@H](CC(C)C)C(=O)N[C@@H](CC(=O)O)C(=O)N[C@@H](CCCCN)C(=O)N[C@@H](CCCCNC(=O)COCCOCCNC(=O)COCCOCCNC(=O)CC[C@H](NC(=O)CCCCCCCCCCCCCCCCCCC(=O)O)C(=O)O)C(=O)N[C@@H](Cc1c[nH]cn1)C(=O)N[C@@H](CCC(N)=O)C(=O)NC(C)(C)C(=O)N[C@@H](CC(=O)O)C(=O)N[C@@H](Cc1ccccc1)C(=O)N[C@H](C(=O)N[C@@H](CCC(=O)O)C(=O)N[C@@H](Cc1ccncc1)C(=O)N[C@@H](CC(C)C)C(=O)N[C@@H](CC(C)C)C(=O)N[C@@H](C)C(=O)N[C@@H](C)C(=O)NCC(=O)N1CCC[C@H]1C(=O)N[C@@H](CO)C(=O)N[C@@H](CO)C(=O)NCC(=O)N[C@@H](C)C(=O)N1CCC[C@H]1C(=O)N1CCC[C@H]1C(=O)N1CCC[C@H]1C(=O)N[C@@H](CO)C(N)=O)C(C)C)[C@@H](C)CC
B2: Example 79 (peptide)
peptide: Y[Aib]EGTFISDYSI[αMeL]LDKK([AEEA-AEEA-γGlu-C20 diacid])HQ[Aib]DFVE[4Pal]LLAQGPSSGAPPPS-NH2
modifications: N-terminus assumed
SMILES: CC[C@H](C)[C@H](NC(=O)[C@H](Cc1ccccc1)NC(=O)[C@@H](NC(=O)CNC(=O)[C@H](CCC(=O)O)NC(=O)C(C)(C)NC(=O)[C@@H](N)Cc1ccc(O)cc1)[C@@H](C)O)C(=O)N[C@@H](CO)C(=O)N[C@@H](CC(=O)O)C(=O)N[C@@H](Cc1ccc(O)cc1)C(=O)N[C@@H](CO)C(=O)N[C@H](C(=O)N[C@@](C)(CC(C)C)C(=O)N[C@@H](CC(C)C)C(=O)N[C@@H](CC(=O)O)C(=O)N[C@@H](CCCCN)C(=O)N[C@@H](CCCCNC(=O)COCCOCCNC(=O)COCCOCCNC(=O)CC[C@H](NC(=O)CCCCCCCCCCCCCCCCCCC(=O)O)C(=O)O)C(=O)N[C@@H](Cc1c[nH]cn1)C(=O)N[C@@H](CCC(N)=O)C(=O)NC(C)(C)C(=O)N[C@@H](CC(=O)O)C(=O)N[C@@H](Cc1ccccc1)C(=O)N[C@H](C(=O)N[C@@H](CCC(=O)O)C(=O)N[C@@H](Cc1ccncc1)C(=O)N[C@@H](CC(C)C)C(=O)N[C@@H](CC(C)C)C(=O)N[C@@H](C)C(=O)N[C@@H](CCC(N)=O)C(=O)NCC(=O)N1CCC[C@H]1C(=O)N[C@@H](CO)C(=O)N[C@@H](CO)C(=O)NCC(=O)N[C@@H](C)C(=O)N1CCC[C@H]1C(=O)N1CCC[C@H]1C(=O)N1CCC[C@H]1C(=O)N[C@@H](CO)C(N)=O)C(C)C)[C@@H](C)CC
B3: Example 85 (peptide)
peptide: Y[Aib]EGTFISDYSI[αMeL]LDEK([AEEA-AEEA-γGlu-C20 diacid])HQ[Aib]DFVE[4Pal]LLAAGPSSGAPPPS-NH2
modifications: N-terminus assumed
SMILES: CC[C@H](C)[C@H](NC(=O)[C@H](Cc1ccccc1)NC(=O)[C@@H](NC(=O)CNC(=O)[C@H](CCC(=O)O)NC(=O)C(C)(C)NC(=O)[C@@H](N)Cc1ccc(O)cc1)[C@@H](C)O)C(=O)N[C@@H](CO)C(=O)N[C@@H](CC(=O)O)C(=O)N[C@@H](Cc1ccc(O)cc1)C(=O)N[C@@H](CO)C(=O)N[C@H](C(=O)N[C@@](C)(CC(C)C)C(=O)N[C@@H](CC(C)C)C(=O)N[C@@H](CC(=O)O)C(=O)N[C@@H](CCC(=O)O)C(=O)N[C@@H](CCCCNC(=O)COCCOCCNC(=O)COCCOCCNC(=O)CC[C@H](NC(=O)CCCCCCCCCCCCCCCCCCC(=O)O)C(=O)O)C(=O)N[C@@H](Cc1c[nH]cn1)C(=O)N[C@@H](CCC(N)=O)C(=O)NC(C)(C)C(=O)N[C@@H](CC(=O)O)C(=O)N[C@@H](Cc1ccccc1)C(=O)N[C@H](C(=O)N[C@@H](CCC(=O)O)C(=O)N[C@@H](Cc1ccncc1)C(=O)N[C@@H](CC(C)C)C(=O)N[C@@H](CC(C)C)C(=O)N[C@@H](C)C(=O)N[C@@H](C)C(=O)NCC(=O)N1CCC[C@H]1C(=O)N[C@@H](CO)C(=O)N[C@@H](CO)C(=O)NCC(=O)N[C@@H](C)C(=O)N1CCC[C@H]1C(=O)N1CCC[C@H]1C(=O)N1CCC[C@H]1C(=O)N[C@@H](CO)C(N)=O)C(C)C)[C@@H](C)CC
B4: Example 86 (peptide)
peptide: Y[Aib]EGTFISDYSI[αMeL]LDEK([AEEA-AEEA-γGlu-C20 diacid])HQ[Aib]DFVE[4Pal]LLAGGPSSGAPPPS-NH2
modifications: N-terminus assumed
SMILES: CC[C@H](C)[C@H](NC(=O)[C@H](Cc1ccccc1)NC(=O)[C@@H](NC(=O)CNC(=O)[C@H](CCC(=O)O)NC(=O)C(C)(C)NC(=O)[C@@H](N)Cc1ccc(O)cc1)[C@@H](C)O)C(=O)N[C@@H](CO)C(=O)N[C@@H](CC(=O)O)C(=O)N[C@@H](Cc1ccc(O)cc1)C(=O)N[C@@H](CO)C(=O)N[C@H](C(=O)N[C@@](C)(CC(C)C)C(=O)N[C@@H](CC(C)C)C(=O)N[C@@H](CC(=O)O)C(=O)N[C@@H](CCC(=O)O)C(=O)N[C@@H](CCCCNC(=O)COCCOCCNC(=O)COCCOCCNC(=O)CC[C@H](NC(=O)CCCCCCCCCCCCCCCCCCC(=O)O)C(=O)O)C(=O)N[C@@H](Cc1c[nH]cn1)C(=O)N[C@@H](CCC(N)=O)C(=O)NC(C)(C)C(=O)N[C@@H](CC(=O)O)C(=O)N[C@@H](Cc1ccccc1)C(=O)N[C@H](C(=O)N[C@@H](CCC(=O)O)C(=O)N[C@@H](Cc1ccncc1)C(=O)N[C@@H](CC(C)C)C(=O)N[C@@H](CC(C)C)C(=O)N[C@@H](C)C(=O)NCC(=O)NCC(=O)N1CCC[C@H]1C(=O)N[C@@H](CO)C(=O)N[C@@H](CO)C(=O)NCC(=O)N[C@@H](C)C(=O)N1CCC[C@H]1C(=O)N1CCC[C@H]1C(=O)N1CCC[C@H]1C(=O)N[C@@H](CO)C(N)=O)C(C)C)[C@@H](C)CC
B5: Example 89 (peptide)
peptide: Y[Aib]EGTLISDYSI[αMeL]LDKK([AEEA-AEEA-γGlu-C20 diacid])HQ[Aib]DFVE[4Pal]LLEAGPSSGAPPPS-NH2
modifications: N-terminus assumed
SMILES: CC[C@H](C)[C@H](NC(=O)[C@H](CC(C)C)NC(=O)[C@@H](NC(=O)CNC(=O)[C@H](CCC(=O)O)NC(=O)C(C)(C)NC(=O)[C@@H](N)Cc1ccc(O)cc1)[C@@H](C)O)C(=O)N[C@@H](CO)C(=O)N[C@@H](CC(=O)O)C(=O)N[C@@H](Cc1ccc(O)cc1)C(=O)N[C@@H](CO)C(=O)N[C@H](C(=O)N[C@@](C)(CC(C)C)C(=O)N[C@@H](CC(C)C)C(=O)N[C@@H](CC(=O)O)C(=O)N[C@@H](CCCCN)C(=O)N[C@@H](CCCCNC(=O)COCCOCCNC(=O)COCCOCCNC(=O)CC[C@H](NC(=O)CCCCCCCCCCCCCCCCCCC(=O)O)C(=O)O)C(=O)N[C@@H](Cc1c[nH]cn1)C(=O)N[C@@H](CCC(N)=O)C(=O)NC(C)(C)C(=O)N[C@@H](CC(=O)O)C(=O)N[C@@H](Cc1ccccc1)C(=O)N[C@H](C(=O)N[C@@H](CCC(=O)O)C(=O)N[C@@H](Cc1ccncc1)C(=O)N[C@@H](CC(C)C)C(=O)N[C@@H](CC(C)C)C(=O)N[C@@H](CCC(=O)O)C(=O)N[C@@H](C)C(=O)NCC(=O)N1CCC[C@H]1C(=O)N[C@@H](CO)C(=O)N[C@@H](CO)C(=O)NCC(=O)N[C@@H](C)C(=O)N1CCC[C@H]1C(=O)N1CCC[C@H]1C(=O)N1CCC[C@H]1C(=O)N[C@@H](CO)C(N)=O)C(C)C)[C@@H](C)CC

Assays:
human glucagon receptor = target: T1, human glucagon receptor (human, UniProt P47871 26-477); assay: SPA, displacement of [125I]-Gcg from hGcgR membranes, 0.1% bacitracin
T1 construct: whole, on cells; Assayed as crude membranes of stably transfected HEK293 cells; also called hGcgR; GcgR
How it was run: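 Binding buffer: 25 mM HEPES pH 7.4, 2.5 mM CaCl₂, 1 mM MgCl₂, 0.003% Tween-20, protease inhibitors without EDTA. Counted by scintillation after 12 h incubation/settling at room temperature. Four-parameter nonlinear fit; Kᵢ given as geometric mean ± SEM of independent replicates run on different days.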

[1] = target: T2, human glucose-dependent insulinotropic polypeptide (GIP) receptor (human, UniProt P48546 22-466); assay: SPA, displacement of [125I]-GIP from hGIPR membranes, 0.1% bacitracin
T2 construct: whole, on cells; Assayed as crude membranes of stably transfected CHO cells; also called hGIPR; human GIP receptor
T2 sequence (looked up): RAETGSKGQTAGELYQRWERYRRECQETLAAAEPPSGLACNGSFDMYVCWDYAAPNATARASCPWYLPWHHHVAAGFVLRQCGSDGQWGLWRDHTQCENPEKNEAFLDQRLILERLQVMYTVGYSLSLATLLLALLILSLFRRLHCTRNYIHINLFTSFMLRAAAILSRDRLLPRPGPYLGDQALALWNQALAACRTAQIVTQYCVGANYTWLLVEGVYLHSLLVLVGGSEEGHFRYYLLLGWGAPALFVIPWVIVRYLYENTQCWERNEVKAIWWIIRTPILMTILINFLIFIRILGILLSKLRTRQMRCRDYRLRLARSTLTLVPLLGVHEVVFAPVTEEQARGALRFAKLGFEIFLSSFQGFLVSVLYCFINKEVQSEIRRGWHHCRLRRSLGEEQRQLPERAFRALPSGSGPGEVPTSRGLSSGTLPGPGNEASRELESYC

human GLP-1 receptor = target: T3, human GLP-1 receptor (human, UniProt P43220 24-463); assay: SPA, displacement of [125I]-GLP-1 from hGLP-1R membranes, 0.1% bacitracin
T3 construct: whole, on cells; Assayed as crude membranes of stably transfected HEK293 cells; also called hGLP1R; hGLP-1R
How it was run: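 Binding buffer: 25 mM HEPES pH 7.4, 2.5 mM CaCl₂, 1 mM MgCl₂, 0.1% bacitracin, 0.003% Tween-20, protease inhibitors without EDTA. Four-parameter nonlinear regression; Kᵢ given as geometric mean ± SEM, n = independent replicates run on different days.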

T1 sequence (P47871 26-477): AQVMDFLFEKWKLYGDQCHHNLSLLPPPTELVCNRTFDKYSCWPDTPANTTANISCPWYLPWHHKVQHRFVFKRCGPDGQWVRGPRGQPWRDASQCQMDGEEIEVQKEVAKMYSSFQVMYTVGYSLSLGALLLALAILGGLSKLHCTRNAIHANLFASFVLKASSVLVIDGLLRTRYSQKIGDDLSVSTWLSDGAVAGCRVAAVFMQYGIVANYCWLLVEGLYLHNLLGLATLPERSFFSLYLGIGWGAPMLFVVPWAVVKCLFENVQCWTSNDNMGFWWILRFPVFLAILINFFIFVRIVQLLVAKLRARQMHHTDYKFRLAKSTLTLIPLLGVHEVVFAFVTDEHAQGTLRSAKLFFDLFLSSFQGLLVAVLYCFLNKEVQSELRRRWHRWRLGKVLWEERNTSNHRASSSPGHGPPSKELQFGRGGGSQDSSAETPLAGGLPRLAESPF

Binder | Ki (human glucagon receptor) | Ki [1] | Ki (human GLP-1 receptor)
B1 | 505 nM | 0.0236 nM | 394 nM
B2 | 888 nM | 0.0229 nM | 486 nM
B3 | 800 nM | 0.0529 nM | 220 nM
B4 | 462 nM | 0.0533 nM | 108 nM
B5 | 611 nM | 0.072 nM | 294 nM
